For this experiment, the target named is PpCESA3 (MbYTH bait and prey fusions) (Physcomitrella patens) (UniProt A9RGN5). The experiment in a line: two-hybrid.

In the case of “PpCESA3 (MbYTH bait and prey fusions) (from UniProt A9RGN5 1-1093) (natural protein)”, the colony growth as percent of the positive control was found to be 20%.

The values above are taken from publication PMC6711812.
